In US10280218B2, “Antibodies binding to BMP4, and uses thereof” (ACADEMISCH MEDISCH CENTRUM, priority 2014, dated 2019):

What was measured:
BMP2 = target: T1, BMP2 (Homo sapiens, UniProt P12643); experiment: BMP specificity of VHH antibodies (summary of binding and inhibition of BMP function); parameters: key: ●▪: Binding and inhibition of BMP function.; ●□: Binding, but no inhibition.; ○: No binding; conditions: summary of SPR and functional experiments
T1 sequence (P12643 283-396): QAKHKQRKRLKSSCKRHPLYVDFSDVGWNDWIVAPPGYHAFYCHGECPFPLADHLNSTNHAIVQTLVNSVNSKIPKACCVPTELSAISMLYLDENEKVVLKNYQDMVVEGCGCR
Source text: (§1) Thus, we have generated several VH Hs that can be classified into four groups (Table 3): BMP4, BMP2/4, BMP2/4/5 and BMP2/4/5/6-specific.

BMP5 = target: T2, BMP5 (Homo sapiens, UniProt P22003); experiment: as above; parameters: key: ●▪: Binding and inhibition of BMP function.; ●□: Binding, but no inhibition.; ○: No binding; conditions: summary of SPR and functional experiments
T2 sequence (P22003 317-454): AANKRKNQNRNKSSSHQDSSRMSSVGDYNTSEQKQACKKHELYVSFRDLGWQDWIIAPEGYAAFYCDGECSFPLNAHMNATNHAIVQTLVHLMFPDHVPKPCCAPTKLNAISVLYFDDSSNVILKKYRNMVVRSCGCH
Source text: as §1

BMP6 = target: T3, BMP6 (Homo sapiens, UniProt P22004); experiment: as above; parameters: key: ●▪: Binding and inhibition of BMP function.; ●□: Binding, but no inhibition.; ○: No binding; conditions: summary of SPR and functional experiments
T3 sequence (P22004 375-513): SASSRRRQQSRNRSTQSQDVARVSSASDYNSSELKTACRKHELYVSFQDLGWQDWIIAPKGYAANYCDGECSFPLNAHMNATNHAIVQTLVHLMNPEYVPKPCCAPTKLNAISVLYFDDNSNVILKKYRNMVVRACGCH
Source text: as §1

BMP7 = target: T4, BMP7 (Homo sapiens, UniProt P18075); experiment: as above; parameters: key: ●▪: Binding and inhibition of BMP function.; ●□: Binding, but no inhibition.; ○: No binding; conditions: summary of SPR and functional experiments
T4 sequence (P18075 293-431): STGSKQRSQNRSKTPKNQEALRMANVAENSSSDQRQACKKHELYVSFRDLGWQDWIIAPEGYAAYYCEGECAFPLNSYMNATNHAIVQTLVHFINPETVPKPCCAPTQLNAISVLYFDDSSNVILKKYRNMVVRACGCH
Source text: as §1

endogenous BMP activity = experiment: BRE-luciferase activity of supernatants of mouse intestinal organoid cultures; format: cell-based; conditions: supernatants of day 3; C4C4 100 ng/ml, C8C8 500 ng/ml or 5 μg/ml
Protocol: Finally, the VHHs were tested in an intestinal organoid culture system for their ability to neutralize the function of BMP4 ex vivo. Inhibition of BMP activity is one of the requirements to maintain Intestinal Stem Cells in vitro cultured as “organoids” that mimic crypt-villus structures and is usually provided by the addition of Noggin to the media. Murine small intestine organoids were cultured in the presence or absence of the VHH biheads and compared to Noggin. To precisely determine which BMPs are present in these cultures, BMP secretion was measured in the conditioned media of intestinal organoids grown without Noggin for three days. Whereas BMP2, BMP4 and BMP6 could be detected by ELISA (FIG. 14A), BMP5 levels were negative, most likely due to the low sensitivity of the ELISA assay (>250 pg/mL), and not due to the lack of BMP5 in these cultures. Indeed, analysis of the protein lysates of these organoids, detected the presence of BMP2, BMP4, BMP5 and BMP6 (FIG. 14B). Next, freshly isolated crypts from murine small intestines were cultured with the VHHs and tested for their ability to provide endogenous BMP inhibition and to sustain organoid cultures ex vivo. […]
Organoids were cultured as previously described (Sato et al., 2009). […] Crypts were counted and resuspended in matrigel. […]

BMP2: binding and inhibition of BMP function (BMP2): ●▪
BMP5: binding and inhibition of BMP function (BMP5): ●▪
BMP6: binding and inhibition of BMP function (BMP6): ●□
BMP7: binding and inhibition of BMP function (BMP7): ●□
B1: C8E7: E7 linked to C8, hetero-dimer VHH bihead (protein)
chain: EVQLVESGGGLVQAGGSLRLSCAASGRTFRINDMGWYRQAPGKSRDMVARITSGGNTNYADSVKGRFTISRDNAKNTVYLQMNSLKPEDTAVYYCNADGLRFDSTRYRPFDSWGQGTQVTVSSGGGGSGGGGSEVQLVESGGGLVQAGGSLRLSCAASGSIRGFVAMAWYRQAPGKQREWVATVTNGGTLYGDSVKGRFTGSRDNAKNTVYLQMNSLKPEDTAVYYCALRQIGASGYDYWGQGTQVTVSS
inhibition of endogenous BMP activity ex vivo (BRE-luciferase activity of organoid supernatants) (endogenous BMP activity): to the same level as the natural inhibitor Noggin
